Source: US20230250154A1 (CYTONICS, published 2023)

Experiments:
Experiment in all cases: cell-based or functional assay
ADAMTS5 = molecular target: T1, ADAMTS5 (human, UniProt Q9UNA0 262-622, limits assumed)
T1 sequence (looked up): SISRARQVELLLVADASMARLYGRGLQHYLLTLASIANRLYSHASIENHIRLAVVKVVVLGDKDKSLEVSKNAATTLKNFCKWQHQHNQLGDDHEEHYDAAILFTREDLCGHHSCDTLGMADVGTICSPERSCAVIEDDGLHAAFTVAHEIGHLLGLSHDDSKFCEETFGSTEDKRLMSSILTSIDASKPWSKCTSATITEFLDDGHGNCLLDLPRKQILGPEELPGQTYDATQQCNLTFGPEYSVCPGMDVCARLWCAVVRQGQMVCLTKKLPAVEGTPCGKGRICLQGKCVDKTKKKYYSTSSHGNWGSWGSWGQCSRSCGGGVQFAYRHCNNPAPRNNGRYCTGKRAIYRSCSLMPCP

MMP1 = molecular target: T2, MMP1 (human, UniProt P03956 100-469, limits assumed)
T2 sequence (looked up): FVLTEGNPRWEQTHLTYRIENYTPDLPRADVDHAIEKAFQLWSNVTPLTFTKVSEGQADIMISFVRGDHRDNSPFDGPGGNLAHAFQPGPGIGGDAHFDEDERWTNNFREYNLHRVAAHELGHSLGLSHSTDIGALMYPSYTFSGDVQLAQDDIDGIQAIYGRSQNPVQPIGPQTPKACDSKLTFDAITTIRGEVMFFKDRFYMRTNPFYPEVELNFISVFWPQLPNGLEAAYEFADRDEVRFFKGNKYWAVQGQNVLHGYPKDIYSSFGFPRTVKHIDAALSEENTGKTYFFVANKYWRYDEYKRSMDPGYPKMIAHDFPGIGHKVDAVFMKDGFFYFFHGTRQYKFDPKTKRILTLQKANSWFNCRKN

MMP9 = MMP9 (human, UniProt P14780 107-707, limits assumed)
MMP9, sequence (P14780 107-707 limits assumed): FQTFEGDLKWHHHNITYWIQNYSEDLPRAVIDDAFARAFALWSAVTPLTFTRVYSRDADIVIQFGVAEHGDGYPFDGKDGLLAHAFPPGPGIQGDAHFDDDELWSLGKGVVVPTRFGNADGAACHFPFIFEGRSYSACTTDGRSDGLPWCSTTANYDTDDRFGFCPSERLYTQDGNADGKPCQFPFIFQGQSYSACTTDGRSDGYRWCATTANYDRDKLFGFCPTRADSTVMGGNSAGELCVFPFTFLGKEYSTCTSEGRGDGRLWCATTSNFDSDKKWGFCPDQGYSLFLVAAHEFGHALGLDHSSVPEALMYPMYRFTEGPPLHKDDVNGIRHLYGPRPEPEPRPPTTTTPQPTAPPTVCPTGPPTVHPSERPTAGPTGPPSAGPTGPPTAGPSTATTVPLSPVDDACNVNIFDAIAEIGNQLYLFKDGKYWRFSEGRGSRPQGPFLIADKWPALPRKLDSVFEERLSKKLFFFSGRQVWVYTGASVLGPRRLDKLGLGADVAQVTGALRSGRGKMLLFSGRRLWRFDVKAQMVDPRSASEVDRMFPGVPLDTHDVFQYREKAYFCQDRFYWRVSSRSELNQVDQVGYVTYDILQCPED

MMP7 = molecular target: T3, MMP7 (UniProt P09237 95-267, limits assumed)
T3 sequence (looked up): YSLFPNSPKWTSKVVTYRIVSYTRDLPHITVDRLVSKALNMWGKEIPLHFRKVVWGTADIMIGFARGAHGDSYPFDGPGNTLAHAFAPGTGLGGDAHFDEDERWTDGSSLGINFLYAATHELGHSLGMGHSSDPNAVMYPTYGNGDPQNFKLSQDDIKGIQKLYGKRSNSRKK

MMP3 = MMP3 (human, UniProt P08254 100-477, limits assumed)
MMP3, sequence (P08254 100-477 limits assumed): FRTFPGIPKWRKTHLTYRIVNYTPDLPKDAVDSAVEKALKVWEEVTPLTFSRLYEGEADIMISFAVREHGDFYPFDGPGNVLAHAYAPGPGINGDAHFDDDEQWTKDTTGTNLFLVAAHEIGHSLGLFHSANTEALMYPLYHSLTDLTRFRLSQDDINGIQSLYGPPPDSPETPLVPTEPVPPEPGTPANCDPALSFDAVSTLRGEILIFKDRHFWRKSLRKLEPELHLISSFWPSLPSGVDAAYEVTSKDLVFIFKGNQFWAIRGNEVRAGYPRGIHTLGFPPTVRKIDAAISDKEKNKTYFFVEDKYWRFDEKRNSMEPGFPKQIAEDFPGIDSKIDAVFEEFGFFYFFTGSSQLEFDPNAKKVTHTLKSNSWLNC

MMP2 = molecular target: T4, MMP2 (human, UniProt P08253 110-660, limits assumed)
T4 sequence (looked up): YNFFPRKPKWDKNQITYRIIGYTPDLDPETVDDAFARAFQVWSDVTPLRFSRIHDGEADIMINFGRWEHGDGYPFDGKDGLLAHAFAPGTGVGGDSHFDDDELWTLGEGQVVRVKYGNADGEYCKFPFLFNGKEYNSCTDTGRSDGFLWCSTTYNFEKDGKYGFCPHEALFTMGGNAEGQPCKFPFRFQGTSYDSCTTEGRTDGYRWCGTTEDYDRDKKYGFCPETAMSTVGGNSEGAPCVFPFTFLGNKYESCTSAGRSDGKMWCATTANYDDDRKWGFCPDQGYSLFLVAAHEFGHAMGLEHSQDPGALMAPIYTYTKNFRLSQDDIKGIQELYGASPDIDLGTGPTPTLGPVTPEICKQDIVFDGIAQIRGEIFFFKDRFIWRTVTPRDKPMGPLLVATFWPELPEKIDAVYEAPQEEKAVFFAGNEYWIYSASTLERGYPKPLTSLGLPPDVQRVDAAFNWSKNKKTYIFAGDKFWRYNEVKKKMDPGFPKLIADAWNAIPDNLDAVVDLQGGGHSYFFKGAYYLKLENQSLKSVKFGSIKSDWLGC

MMP8 = MMP8 (human, UniProt P22894 101-467, limits assumed)
MMP8, sequence (P22894 101-467 limits assumed): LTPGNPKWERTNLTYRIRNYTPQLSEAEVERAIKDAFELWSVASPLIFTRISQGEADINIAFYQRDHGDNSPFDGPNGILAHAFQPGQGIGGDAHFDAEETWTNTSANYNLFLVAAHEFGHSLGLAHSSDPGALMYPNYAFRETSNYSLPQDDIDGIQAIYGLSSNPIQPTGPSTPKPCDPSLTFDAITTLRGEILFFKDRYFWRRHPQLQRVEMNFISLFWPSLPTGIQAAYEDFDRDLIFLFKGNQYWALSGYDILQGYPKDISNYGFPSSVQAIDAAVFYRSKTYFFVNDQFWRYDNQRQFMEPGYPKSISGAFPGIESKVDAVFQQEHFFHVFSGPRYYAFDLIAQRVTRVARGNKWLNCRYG

MMP13 = MMP13 (human, UniProt P45452 104-471, limits assumed)
Elastase = molecular target: Elastase
ADAMTS4 = molecular target: T5, ADAMTS4 (human, UniProt O75173 213-685, limits assumed)
T5 sequence (looked up): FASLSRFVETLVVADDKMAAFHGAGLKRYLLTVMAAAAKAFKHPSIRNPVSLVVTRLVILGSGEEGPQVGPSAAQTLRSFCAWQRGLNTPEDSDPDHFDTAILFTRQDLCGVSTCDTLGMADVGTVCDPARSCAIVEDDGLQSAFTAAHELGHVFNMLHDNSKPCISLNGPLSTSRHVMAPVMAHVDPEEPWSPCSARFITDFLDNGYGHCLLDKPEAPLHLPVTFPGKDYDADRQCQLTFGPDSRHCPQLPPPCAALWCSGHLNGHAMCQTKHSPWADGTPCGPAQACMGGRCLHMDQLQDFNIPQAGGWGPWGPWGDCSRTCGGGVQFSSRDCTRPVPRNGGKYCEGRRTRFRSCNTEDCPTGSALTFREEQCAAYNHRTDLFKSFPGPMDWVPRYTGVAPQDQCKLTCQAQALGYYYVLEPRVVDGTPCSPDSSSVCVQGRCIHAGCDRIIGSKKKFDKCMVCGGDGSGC

Cathepsin G = molecular target: T6, Cathepsin G (UniProt P08311 21-244)
T6 sequence (looked up): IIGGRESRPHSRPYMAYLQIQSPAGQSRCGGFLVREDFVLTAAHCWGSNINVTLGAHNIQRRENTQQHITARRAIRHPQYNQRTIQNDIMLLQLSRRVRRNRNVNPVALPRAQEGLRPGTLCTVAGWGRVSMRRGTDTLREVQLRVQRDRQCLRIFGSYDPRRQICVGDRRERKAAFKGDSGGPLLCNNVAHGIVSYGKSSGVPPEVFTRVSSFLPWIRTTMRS

B1: Variant A2M, bait region SEQ ID NO 23 (other)
chain: SVSGKPQYMVLVPSLLHTETTEKGCVLLSYLNETVTVSASLESVRGNRSLFTDLEAENDVLHCVAFAVPKSSSNEEVMFLTVQVKGPTQEFKKRTTVMVKNEDSLVFVQTDKSIYKPGQTVKFRVVSMDENFHPLNELIPLVYIQDPKGNRIAQWQSFQLEGGLKQFSFPLSSEPFQGSYKVVVQKKSGGRTEHPFTVEEFVLPKFEVQVTVPKIITILEEEMNVSVCGLYTYGKPVPGHVTVSICRKYSDASDCHGEDSQAFCEKFSGQLNSHGCFYQQVKTKVFQLKRKEYEMKLHTEAQIQEEGTVVELTGRQSSEITRTITKLSFVKVDSHFRQGIPFFGQVRLVDGKGVPIPNKVIFIRGNEANYYSNATTDEHGLVQFSINTTNVMGTSLTVRVNYKDRSPCYGYQWVSEEHEEAHHTAYLVFSPSKSFVHLEPMSHELPCGHTQTVQAHYILNGGTLLGLKKLSFYYLIMAKGGIVRTGTHGLLVKQEDMKGHFSISIPVKSDIAPVARLLIYAVLPTGDVIGDSAKYDVENCLANKVDLSFSPSQSLPASHAHLRVTAAPQSVCALRAVDQSVLLMKPDAELSASSVYNLLPEKDLTGFPGPLNDQDDEDCINRHNVYINGITYTPVSSTNEKDMYSFLEDMGLKAFTNSKIRKPKMCPQLEHGPIPENFYGVEGEGLGIGSEDLVVQISELEGRGSVEEPHTKLRKYFPETWIWDLVVVNSAGVAEVGVTVPDTITEWKAGAFCLSEDAGLGISSTASLRAFQPFFVELTMPYSVIRGEAFTLKATVLNYLPKCIRVSVQLEASPAFLAVPVEKEQAPHCICANGRQTVSWAVTPKSLGNVNFTVSAEALESQELCGTEVPSVPEHGRKDTVIKPLLVEPEGLEKETTFNSLLCPSGGEVSEELSLKLPPNVVEESARASVSVLGDILGSAMQNTQNLLQMPYGCGEQNMVLFAPNIYVLDYLNETQQLTPEIKSKAIGYLNTGYQRQLNYKHYDGSYSTFGERYGRNQGNTWLTAFVLKTFAQARAYIFIDEAHITQALIWLSQRQKDNGCFRSSGSLLNNAIKGGVEDEVTLSAYITIALLEIPLTVTHPVVRNALFCLESAWKTAQEGDHGSHVYTKALLAYAFALAGNQDKRKEVLKSLNEEAVKKDNSVHWERPQKPKAPVGHFYEPQAPSAEVEMTSYVLLAYLTAQPAPTSEDLTSATNIVKWITKQQNAQGGFSSTQDTVVALHALSKYGAATFTRTGKAAQVTIQSSGTFSSKFQVDNNNRLLLQQVSLPELPGEYSMKVTGEGCVYLQTSLKYNILPEKEEFPFALGVQTLPQTCDEPKAHTSFQISLSVSYTGSRSASNMAIVDVKMVSGFIPLKPTVKMLERSNHVSRTEVSSNHVLIYLDKVSNQTLSLFFTVLQDVPVRDLKPAIVKVYDYYETDEFAIAEYNAPCSKDLGNADYKDDDDKGASHHHHHH
For B1, the “Protease Inhibition (% of WT)” value (ADAMTS5) was 200 % of WT, the “Protease Inhibition (% of WT)” value (MMP1) was 133 % of WT and the “Protease Inhibition (% of WT)” value (MMP9) was 71 % of WT. The “Protease Inhibition (% of WT)” value (MMP7) was 191 % of WT, the “Protease Inhibition (% of WT)” value (MMP3) was 111 % of WT and the “Protease Inhibition (% of WT)” value (MMP2) was 80 % of WT. For the same binder, the “Protease Inhibition (% of WT)” value (MMP8) was 132 % of WT, the “Protease Inhibition (% of WT)” value (MMP13) was 133 % of WT and the “Protease Inhibition (% of WT)” value (Elastase) was 147 % of WT. The “Protease Inhibition (% of WT)” value (ADAMTS4) was 176 % of WT and the “Protease Inhibition (% of WT)” value (Cathepsin G) was 145 % of WT.

B2: Variant A2M, bait region SEQ ID NO 22 (other)
chain: SVSGKPQYMVLVPSLLHTETTEKGCVLLSYLNETVTVSASLESVRGNRSLFTDLEAENDVLHCVAFAVPKSSSNEEVMFLTVQVKGPTQEFKKRTTVMVKNEDSLVFVQTDKSIYKPGQTVKFRVVSMDENFHPLNELIPLVYIQDPKGNRIAQWQSFQLEGGLKQFSFPLSSEPFQGSYKVVVQKKSGGRTEHPFTVEEFVLPKFEVQVTVPKIITILEEEMNVSVCGLYTYGKPVPGHVTVSICRKYSDASDCHGEDSQAFCEKFSGQLNSHGCFYQQVKTKVFQLKRKEYEMKLHTEAQIQEEGTVVELTGRQSSEITRTITKLSFVKVDSHFRQGIPFFGQVRLVDGKGVPIPNKVIFIRGNEANYYSNATTDEHGLVQFSINTTNVMGTSLTVRVNYKDRSPCYGYQWVSEEHEEAHHTAYLVFSPSKSFVHLEPMSHELPCGHTQTVQAHYILNGGTLLGLKKLSFYYLIMAKGGIVRTGTHGLLVKQEDMKGHFSISIPVKSDIAPVARLLIYAVLPTGDVIGDSAKYDVENCLANKVDLSFSPSQSLPASHAHLRVTAAPQSVCALRAVDQSVLLMKPDAELSASSVYNLLPEKDLTGFPGPLNDQDDEDCINRHNVYINGITYTPVSSTNEKDMYSFLEDMGLKAFTNSKIRKPKMCPQLEHGPEGEGEGEFRGVTIPENFFGVPRYLTASEDLVVQISELEGRGSPHTKLRKYFPETWIWDLVVVNSAGVAEVGVTVPDTITEWKAGAFCLSEDAGLGISSTASLRAFQPFFVELTMPYSVIRGEAFTLKATVLNYLPKCIRVSVQLEASPAFLAVPVEKEQAPHCICANGRQTVSWAVTPKSLGNVNFTVSAEALESQELCGTEVPSVPEHGRKDTVIKPLLVEPEGLEKETTFNSLLCPSGGEVSEELSLKLPPNVVEESARASVSVLGDILGSAMQNTQNLLQMPYGCGEQNMVLFAPNIYVLDYLNETQQLTPEIKSKAIGYLNTGYQRQLNYKHYDGSYSTFGERYGRNQGNTWLTAFVLKTFAQARAYIFIDEAHITQALIWLSQRQKDNGCFRSSGSLLNNAIKGGVEDEVTLSAYITIALLEIPLTVTHPVVRNALFCLESAWKTAQEGDHGSHVYTKALLAYAFALAGNQDKRKEVLKSLNEEAVKKDNSVHWERPQKPKAPVGHFYEPQAPSAEVEMTSYVLLAYLTAQPAPTSEDLTSATNIVKWITKQQNAQGGFSSTQDTVVALHALSKYGAATFTRTGKAAQVTIQSSGTFSSKFQVDNNNRLLLQQVSLPELPGEYSMKVTGEGCVYLQTSLKYNILPEKEEFPFALGVQTLPQTCDEPKAHTSFQISLSVSYTGSRSASNMAIVDVKMVSGFIPLKPTVKMLERSNHVSRTEVSSNHVLIYLDKVSNQTLSLFFTVLQDVPVRDLKPAIVKVYDYYETDEFAIAEYNAPCSKDLGNADYKDDDDKGASHHHHHH
B2 was tested, and the “Protease Inhibition (% of WT)” value (ADAMTS5) was 316 % of WT, the “Protease Inhibition (% of WT)” value (MMP1) was 68 % of WT and the “Protease Inhibition (% of WT)” value (MMP9) was 30 % of WT. The “Protease Inhibition (% of WT)” value (MMP7) was 75 % of WT, the “Protease Inhibition (% of WT)” value (MMP3) was 265 % of WT and the “Protease Inhibition (% of WT)” value (MMP2) was 42 % of WT. The “Protease Inhibition (% of WT)” value (MMP8) was 54 % of WT, the “Protease Inhibition (% of WT)” value (MMP13) was 93 % of WT and the “Protease Inhibition (% of WT)” value (Elastase) was 92 % of WT. For the same binder, the “Protease Inhibition (% of WT)” value (ADAMTS4) was 104 % of WT and the “Protease Inhibition (% of WT)” value (Cathepsin G) was 78 % of WT.
